Patent publication US20230137139A1, “BIOSYNTHESIS OF CANNABINOIDS AND C[…]” (priority 2020, published 2023)
Residue numbers refer to the chain shown, from its start.

B1: t861588 (protein)
chain: MGNTTSIAAGRDCLLSAVGGNHAHVAFQDQLLYQVTAVEPYNLNIPVTPAAVTYPQSADEIAAVVKCASEYGYKVQARSGGHSFGNYGLGGEDGAIVVEMKHFNQFSMDESTYTATIGPGITLGDLDTALYNAGHRAMAHGICPTIRTGGHLTMGGLGPTARQWGLALDHVEEVEVVLANSSIVRASNTQNQDILFAIKGAAASFGIVTEFKVRTEAAPGVAVQYSFTFNLGTPAEKAKLVKDWQAFIAQEDLTWKFYSNMNIFDGQIILEGIYFGSKEEYDALGLEKRFPSSEAGTVLVLTDWLGMVGHGLEDVILRLVGNTPTWFYAKSLGFTPRALIPDSAIDEFLNYIHENTPGTVSWFVTLSLEGGAINKVPGDATAYGHRDVLFWVQIFMINPLGPVSQTTYGFADGLYDVLAKAVPNSAGHAYLGCPDPRMPNAQQAYWRSNLPRLEELKGELDPKDIFHNPQGVMVVS
modifications: N- and C-terminal signal peptides
B2: t861551 (protein)
chain: MGNTTSIAGRDCLISALGGNSALAVFPNQLLWTADVHEYNLNLPVTPAAITYPETAEQIAGIVKCASDYDYKVQARSGGHSFGNYGLGGTDGAVVVDMKHFNQFSMDDQTYEAVIGPGTTLNDVDIELYNNGKRAMAHGVCPTIKTGGHFTIGGLGPTARQWGLALDHVEEVEVVLANSSIVRASNTQNQDVFFAVKGAAADFGIVTEFKVRTEPAPGLAVQYSYTFNLGSTAEKAQFVKDWQSFISAKNLTRQFYNNMVIFDGDIILEGLFFGSKEQYDALGLEDHFAPKNPGNILVLTDWLGMVGHALEDTILKLVGNTPTWFYAKSLGFRQDTLIPSAGIDQFFEYIANHTAGTPAWFVTLSLEGGAINDVAEDATAYAHRDVLFWVQLFMVNPLGPISETTYEFTDGLYDVLARAVPESVGHAYLGCPDPRMENAPQKYWRTNLPRLQELKEELDPKNTFHHPQGVIPA
B3: t861577 (protein)
chain: B2 chain with V25A, F193L, Q345E, A351D
B4: t861566 (protein)
chain: B2 chain with I14V, V25A, D107N, Q345E
B5: t861592 (protein)
chain: B2 chain with V25A, F193L, Q345E, A351D
B6: t861587 (protein)
chain: B2 chain with I14V, V25A, D107N, Q345E
B7: t861562 (protein)
chain: MGNTTSIAAGRDCLISAVGGNAAHVAFQDQLLYQATAVEPYNLNIPITPAAITYPQSADEIAAVVKCASEYGYKVQARSGGHSFGNYGLGGEDGAIVVEMKHFSQFSMDESTYIATIGPGITLGDLDTELYNVGHRAMAHGICPTIRTGGHLTVGGLGPTARQWGLALDHVEEVEVVLANSSIVRASDTQNQDIFFAIKGAAASFGIVTEFKVRTEQAPGLAVQYSYTFNLGTPAEKAKLVKDWQAFIAQENLSWKFYSNMVVFDGQIILEGLYFGSKEEYDALGLEQRFPPSEAGNVLVLTDWLGMVGHELEDTILRLVGNTPTWFYAKSLGFTPRALIPDSAIDDLFNYIHENNPGTLAWFVTLSLEGGAINTVPEHATAYGHRDVLFWVQIFVINPLGPVSQTTYGFADGMYDVLAQAVPESAGHAYLGCPDPRMPNAQQAYWRSNLPRLEELKGDLDPKGIFHNPQGVMVVS
B8: t861568 (protein)
chain: MGNSASVAGRACFVAAVGHDPNLVTFRGDLLYEFRIQPSYNLAIPVHPTVVTYPKTTAQVAEIVSCAAAQNYKMQAYSGGHSYGNYGLGGEDGHVVVDLKNFQDFTMDPDTHVATIGAGTSLGDLQDRLWHAGGRAMAHGSCPQVGVGGHFTIGGLGMMSRQWGMSLDHVVEAQVVLANSSVVTASDTQNQDIFWAIKGAAASFGIVTKFKVRTHGVPKAAIQYQYTFSQGDVLDKVKLFMAWQNIVAKPNLTRNFSTELTIFQDGIMIMGSFFGTRDEFHKFELENDLPLQGLGNVAYITNWLSLVAHTAEDYLLRLTGNVLTSFYAKSLSFTADELFNEQGLVTLFTYLDAAPKGTPTWWVIFDLEGGATNDVPVNATSYAHRDAIMWMQSYAVAGFEPPGFIIKRFLNRLHGVVIGNRAPGAVRSYPGYVDPYLRNAQETYWGPNLARLQDIKTAVDPDDVFHNPQSVKVNSLSPPDPGSHDV
B9: t861583 (protein)
chain: MGNTTSIAGRDCLISALGGNSALAVFPNELLWTADVHEYNLNLPVTPAAITYPETAAQIAGVVKCASDYDYKVQARSGGHSFGNYGLGGADGAVVVDMKHFTQFSMDDETYEAVIGPGTTLNDVDIELYNNGKRAMAHGVCPTIKTGGHFTIGGLGPTARQWGLALDHVEEVEVVLANSSIVRASNTQNQDVFFAVKGAAANFGIVTEFKVRTEPAPGLAVQYSYTFNLGSTAEKAQFVKDWQSFISAKNLTRQFYNNMVIFDGDIILEGLFFGSKEQYDALGLEDHFAPKNPGNILVLTDWLGMVGHALEDTILKLVGNTPTWFYAKSLGFRQDTLIPSAGIDEFFEYIANHTAGTPAWFVTLSLEGGAINDVAEDATAYAHRDVLFWVQLFMVNPLGPISDTTYEFTDGLYDVLARAVPESVGHAYLGCPDPRMEDAQQKYWRTNLPRLQELKEELDPKNTFHHPQGVMPA
B10: t861589 (protein)
chain: B9 chain
B11: t861567 (protein)
chain: MDSNTWEATFGSGFLLGELDKHLHANGNRAMAHGTCPGVGMGGHATIGGIGPSSRLWGTTLDHVLQVEVVTADGKIQRASKTQNPDLFWALQGAGASFGIITEFVVRTEPEPGSVVEYTYSVSLGKQSDMAPLYKQWQALVGDPSLDRRFTSLFIAEPLGVLITGTFYGTMYEWHASGIPDKLPRGPISVTVMDSLGSLAHIAEKTGLYLTNVPTSFASRSLALRQQDLLSEQSIDDLFEYMGSANADTPLWFVIFDNEGGAIADVPDNSTAYPHRDKVIVYQSYSVGLLGVTDKMIKFLDGVQDIVQRGAPNAHTTYAGYINPQLDRKAAQQFYWGDKLPRLQQIKKQYDPNNVFCNPQSIYPAEDMSDG
B12: t861563 (protein)
chain: MARVPALFLGLSSVCLLVFFCSLINPTTPLHQHGKQTSIAGRDCLVSALGGNTGLVAFQDQLLYQTTAVHEYNLNIPVTPAAITYPETSEQIAAVVKCASEYDYKVQARSGGHSFGNYGLGGADGAVVVDMKHFTQFSMDEQTYEAVIGPGTTLGDVDTELYNNGKRAMAHGICPTISTGGHFTMGGLGPTARQWGLALDHVEEVEVVLANSSIVRASNTQNQEVFFAVKGAAASFGIVTEFKVRTQPAPGLAVQYSYTFNLGSSAEKAQFVKDWQSFISAKNLTRQFYTNMVIFDGNIILEGLFFGSKEQYEALGLEDRFVPKNPGNILVLTDWLGMVGHALEDTILRLVGNTPTWFYAKSLGFTPDTLIPSSGIDEFFDYIENNKAGTLTWFVTLSLEGGAINDVPKDATAYGHRDVLFWVQIFMASPTGPVSSTTYDFADGLYNVLTKAVPESEGHAYLGCPDPKMADAQQKYWRQNLPRLEELKATLDPKDTFHNPQGILPA

System: CBCA production
Assay: In vivo TS activity assay, Example 4 CBCAS enzymes with and without signal peptides, no pH adjustment
Assay type: cell-based
Details: strains with (Y) or without (N) N-terminal and C-terminal signal peptides; no pH adjustment at Day 4; S. cerevisiae
Description: An assay to detect TS activity was conducted as follows: each thawed glycerol stock of candidate CBCAS transformants was stamped into a well of YEP+4% dextrose media. Samples were incubated at 30° C. in a shaking incubator for 2 days. A portion of each of the resulting cultures was stamped into a well of YEP+4% galactose+1 mM olivetolic acid (FIG. 1 Structure 6a). Samples were incubated at 20° C. and shaken in a shaking incubator for 4 days. Every 24 hours during those 4 days, 2% galactose and 1 mM olivetolic acid were spiked into the cultures. Sodium citrate buffer adjusted to pH 5.5 was added to each well at a final concentration of 100 mM. Samples were incubated at 20° C. and shaken in a shaking incubator for 2 days. A portion of each of the resulting production cultures was stamped into a well of phosphate buffered saline (PBS). Optical measurements were taken on a plate reader, with absorbance measured at 600 nm and fluorescence at 528 nm with 485 nm excitation. Samples were incubated at 30° C. in a shaking incubator for 2 days. 100% methanol was stamped into the production cultures in half-height deepwell plates. Plates were heat sealed and frozen. Samples were then thawed for 30 min and spun down at 4° C. A portion of the supernatant was stamped into half-area 96 well plates. CBCA, THCA, and CBDA production in the samples was quantified via liquid chromatography-mass spectrometry (LC-MS).
A library of 20 CBCAS enzymes selected from Example 1 and 3 was synthesized, including versions of the CBCAS enzymes with and without the N-terminal MFalpha2 signal peptide (SEQ ID NO: 16) and C-terminal HDEL signal peptide (SEQ ID NO: 17). Each candidate enzyme expression construct was transformed into an S. cerevisiae CEN.PK strain that also expressed a prenyltransferase enzyme capable of catalyzing reaction R^4 in FIG. 2. Strain t861555 expressing the A. niger CBCAS identified in Example 1, carrying both the Mfalpha2 and HDEL signal peptides was included in the library screen as a positive control for enzyme activity. Strain t861565 expressed the same A. niger CBCAS without the Mfalpha2 and HDEL signal peptides.
The strains were screened using the assay described in Example 1 with the following exception: at Day 4 samples were not subjected to a pH adjustment and a further 2 days of incubation at 20° C.

Molecule	Average CBCA
B1	42686.95 µg/L
B2	17501.94 µg/L
B3	36869.19 µg/L
B4	61918.09 µg/L
B5	74584.36 µg/L
B6	82883.01 µg/L
B7	55737.91 µg/L
B8	0.00 µg/L
B9	59260.52 µg/L
B10	95796.21 µg/L
B11	0.00 µg/L
B12	4821.60 µg/L
